Patent publication WO2021180110A1 (dated 2021)

T1: CD147-Tag fusion protein (human, UniProt P35613-2 22-205)
T1 sequence (looked up): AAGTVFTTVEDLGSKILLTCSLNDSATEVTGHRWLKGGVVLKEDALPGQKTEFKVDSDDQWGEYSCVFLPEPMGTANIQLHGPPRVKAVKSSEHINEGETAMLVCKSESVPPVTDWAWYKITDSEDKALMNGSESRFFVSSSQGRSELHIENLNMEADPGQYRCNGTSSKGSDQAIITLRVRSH

T2: CD147-his fusion protein (human, UniProt P35613 22-205)
T2 sequence: T1 sequence (looked up)

B1: anti-human BASIGIN humanized antibody (antibody, V domains shown)
VH: EVQLVESGGGLVQPGGSLRLSCAASGFTFSNFWMNWVRQAPGKGLEWVSEIRLKSNNYATHYAESVKGRFTISRDDSKNTLYLQMNSLKTEDTAVYYCTSYDYEYWGQGTLVTVSA
VL: DIQMTQSPSTLSASVGDRVTLSCKASENVGTYVSWYQQKPGKAPKLLIYGASNRYTGVPSRFTGSGSGTDFTLTISSLQPEDFATYYCGQSYSYPFTFGSGTKLEIK
B2: CD147 (receptor, human, UniProt P35613-2 22-205, looked up)
chain: T1 sequence (looked up)
notes: also called BASIGIN; EMMPRIN

Key:
[1] = target: T1, CD147-Tag fusion protein
[2] = target: T2, CD147-his fusion protein
[3] = target: CD147 on Vero E6 host cells; assay: cell-based or functional assay
[4] = target: T3, cyclophilin A (CyPA) (UniProt P62937 1-165)
T3 sequence (P62937 whole entry): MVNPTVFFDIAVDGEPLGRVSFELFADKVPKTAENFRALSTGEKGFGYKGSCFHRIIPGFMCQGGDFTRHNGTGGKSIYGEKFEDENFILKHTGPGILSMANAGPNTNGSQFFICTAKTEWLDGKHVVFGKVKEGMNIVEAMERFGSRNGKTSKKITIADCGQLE

[5] = target: T3, cyclophilin A (CyPA); assay: ELISA; format not described

| Binder | IC50 [1] [µg/mL] | IC50 [2] [µg/mL] | EC50 of inhibition of cytopathic effect of COVID-19 virus on Vero E6 cells [3] [µg/mL] | Kd [4] [µM] | koff [4] [s⁻¹] | EC50 [5] [µg/mL] |
| --- | --- | --- | --- | --- | --- | --- |
| B1 | 1.28 | 16.4 | 36 | – | – | – |
| B2 | – | – | – | ~8.7 | 0.0008 | 135 |
